How the values were obtained:
HLA-A*30:01 = assay: IEDB peptide-MHC binding, purified MHC/competitive/radioactivity; filed as Kd, often an IC50 or EC50 that approximates it; ≥ and ≤ were set here for values at or beyond the usual limits of such assays
HLA-A*32:01 = assay: as above
HLA-B*08:01 = assay: as above
HLA-B*15:01 [1] = assay: as above
HLA-B*15:03 = assay: as above
HLA-A*03:01 [2] = assay: IEDB peptide-MHC binding, purified MHC/competitive/fluorescence; filed as Kd, often an IC50 or EC50 that approximates it; ≥ and ≤ were set here for values at or beyond the usual limits of such assays
HLA-A*31:01 = assay: as above
HLA-A*02:03 = assay: IEDB peptide-MHC binding, purified MHC/direct/fluorescence; filed as Kd, often an IC50 or EC50 that approximates it; ≥ and ≤ were set here for values at or beyond the usual limits of such assays
HLA-A*02:11 = assay: as above
HLA-A*02:12 = assay: as above
HLA-A*02:16 = assay: as above
HLA-A*02:19 = assay: as above
HLA-A*03:01 [3] = assay: as above
HLA-A*11:01 = assay: as above
HLA-A*23:01 = assay: as above
HLA-A*24:03 = assay: as above
HLA-A*29:02 = assay: as above
HLA-A*02:01 = assay: IEDB peptide-MHC binding, purified MHC/competitive/fluorescence; filed as Kd, often an IC50 or EC50 that approximates it; ≥ and ≤ were set here for values at or beyond the usual limits of such assays
HLA-A*26:01 = assay: as above
HLA-A*69:01 = assay: as above
HLA-B*18:01 = assay: as above
HLA-B*27:03 = assay: as above
HLA-B*39:01 = assay: as above
HLA-B*46:01 = assay: as above
HLA-B*51:01 = assay: as above
HLA-B*57:01 = assay: as above
HLA-A*01:01 = assay: IEDB peptide-MHC binding, purified MHC/direct/fluorescence; filed as Kd, often an IC50 or EC50 that approximates it; ≥ and ≤ were set here for values at or beyond the usual limits of such assays; conditions: source organism: Reston ebolavirus
HLA-A*68:02 = assay: as above
HLA-B*15:01 [4] = assay: IEDB peptide-MHC binding, purified MHC/competitive/fluorescence; filed as Kd, often an IC50 or EC50 that approximates it; ≥ and ≤ were set here for values at or beyond the usual limits of such assays
HLA-B*15:17 = assay: as above
[5] = source organism: Vaccinia virus WR
[6] = source organism: Escherichia coli 536
[7] = source organism: Encephalitozoon cuniculi GB-M1
[8] = source organism: Vaccinia virus Copenhagen
[9] = source organism: Listeria welshimeri serovar 6b str. SLCC5334
[10] = source organism: Zaire ebolavirus
[11] = source organism: Entamoeba histolytica HM-1:IMSS
[12] = source organism: Reston ebolavirus
[13] = source organism: dengue virus type 1
[14] = source organism: Burkholderia mallei
[15] = source organism: Vibrio vulnificus YJ016
[16] = source organism: Toxoplasma gondii

AILSLNLRI
Kd (HLA-A*30:01; [5]): 0.155 µM
Kd (HLA-A*32:01; [5]): 0.151 µM
Kd (HLA-B*08:01; [5]): 1.28 µM
Kd (HLA-B*15:01 [1]; [5]): 0.142 µM
Kd (HLA-B*15:03; [5]): 237 nM

AVIVWLLLR
Kd (HLA-A*03:01 [2]; [6]): ≥ 20 µM
Kd (HLA-A*31:01; [6]): 0.743 µM

EAYCALLCK
Kd (HLA-A*02:03; [7]): ≥ 20 µM
Kd (HLA-A*02:11; [7]): ≥ 20 µM
Kd (HLA-A*02:12; [7]): ≥ 20 µM
Kd (HLA-A*02:16; [7]): ≥ 20 µM
Kd (HLA-A*02:19; [7]): ≥ 20 µM
Kd (HLA-A*03:01 [3]; [7]): ≥ 20 µM
Kd (HLA-A*11:01; [7]): ≥ 20 µM
Kd (HLA-A*23:01; [7]): ≥ 20 µM
Kd (HLA-A*24:03; [7]): ≥ 20 µM
Kd (HLA-A*29:02; [7]): ≥ 20 µM
Kd (HLA-A*02:01; [7]): ≥ 20 µM
Kd (HLA-A*26:01; [7]): ≥ 20 µM
Kd (HLA-A*69:01; [7]): ≥ 20 µM
Kd (HLA-B*18:01; [7]): ≥ 20 µM
Kd (HLA-B*27:03; [7]): ≥ 20 µM
Kd (HLA-B*39:01; [7]): ≥ 20 µM
Kd (HLA-B*46:01; [7]): ≥ 20 µM
Kd (HLA-B*51:01; [7]): ≥ 20 µM
Kd (HLA-B*57:01; [7]): ≥ 20 µM

FLSEPYSYF
Kd (HLA-B*15:03; [5]): 29.3 nM

FMAYTTSHI
Kd (HLA-B*15:01 [1]; [5]): 0.132 µM
Kd (HLA-B*15:03; [5]): 7.58 nM

GVALRSTYR
Kd (HLA-A*03:01 [3]; source organism: Mycobacterium tuberculosis): 1.81 µM
Kd (HLA-A*31:01; source organism: Mycobacterium tuberculosis H37Ra): 0.0093 µM

ISVLTGSSI
Kd (HLA-A*30:01; [8]): 3.22 µM
Kd (HLA-A*32:01; [8]): 3.91 µM
Kd (HLA-B*08:01; [8]): ≥ 20.6 µM
Kd (HLA-B*15:01 [1]; [8]): 0.0343 µM
Kd (HLA-B*15:03; [8]): 24.9 nM

KKYNNDKSF
Kd (HLA-A*30:01; [5]): ≥ 20.3 µM
Kd (HLA-A*32:01; [5]): 11.4 µM
Kd (HLA-B*08:01; [5]): 3.82 µM
Kd (HLA-B*15:01 [1]; [5]): 6.62 µM
Kd (HLA-B*15:03; [5]): 0.0778 nM

KVGHVGLYR
Kd (HLA-A*03:01 [2]; [9]): 0.046 µM
Kd (HLA-A*31:01; [9]): 0.0196 µM

KVKDLFNTK
Kd (HLA-A*30:01; [5]): 0.0377 µM
Kd (HLA-A*32:01; [5]): 2.48 µM
Kd (HLA-B*08:01; [5]): ≥ 42 µM
Kd (HLA-B*15:01 [1]; [5]): 4.46 µM
Kd (HLA-B*15:03; [5]): ≥ 22100 nM

LATFTVNIF
Kd (HLA-B*15:03; [5]): 35.1 nM

LLSLEIVFF
Kd (HLA-B*15:01 [1]; [8]): 0.142 µM
Kd (HLA-B*15:03; [8]): 2110 nM

LSDAARLFL
Kd (HLA-A*01:01): 0.303 µM
Kd (HLA-A*02:03; [10]): ≥ 20 µM
Kd (HLA-A*02:11; [10]): ≥ 20 µM
Kd (HLA-A*02:12; [10]): ≥ 20 µM
Kd (HLA-A*02:16; [10]): ≥ 20 µM
Kd (HLA-A*02:19; [10]): ≥ 20 µM
Kd (HLA-A*03:01 [3]; [10]): ≥ 20 µM
Kd (HLA-A*23:01; [10]): ≥ 20 µM
Kd (HLA-A*24:03; [10]): ≥ 20 µM
Kd (HLA-A*29:02; [10]): ≥ 20 µM
Kd (HLA-A*68:02; [10]): ≥ 20 µM
Kd (HLA-A*02:01; [10]): ≥ 20 µM
Kd (HLA-A*26:01; [10]): ≥ 20 µM
Kd (HLA-A*69:01; [10]): ≥ 20 µM
Kd (HLA-B*15:01 [4]; [10]): ≥ 20 µM
Kd (HLA-B*18:01; [10]): ≥ 20 µM
Kd (HLA-B*27:03; [10]): ≥ 20 µM
Kd (HLA-B*39:01; [10]): ≥ 20 µM
Kd (HLA-B*46:01; [10]): ≥ 20 µM
Kd (HLA-B*51:01; [10]): ≥ 20 µM
Kd (HLA-B*57:01; [10]): ≥ 20 µM

QYQNEINYL
Kd (HLA-A*23:01; [11]): 0.002 µM
Kd (HLA-A*24:03; [11]): 0.003 µM

RTYSLLNRK
Kd (HLA-A*02:03; [12]): ≥ 20 µM
Kd (HLA-A*02:11; [12]): ≥ 20 µM
Kd (HLA-A*02:12; [12]): ≥ 20 µM
Kd (HLA-A*02:16; [12]): ≥ 20 µM
Kd (HLA-A*02:19; [12]): ≥ 20 µM
Kd (HLA-A*03:01 [3]; source organism: Reston ebolavirus - Reston): 0.144 µM
Kd (HLA-A*23:01; [12]): ≥ 20 µM
Kd (HLA-A*24:03; [12]): ≥ 20 µM
Kd (HLA-A*29:02; [12]): ≥ 20 µM
Kd (HLA-A*68:02; [12]): ≥ 20 µM
Kd (HLA-A*02:01; [12]): ≥ 20 µM
Kd (HLA-A*26:01; [12]): ≥ 20 µM
Kd (HLA-A*31:01; [12]): 0.0155 µM
Kd (HLA-A*69:01; [12]): ≥ 20 µM
Kd (HLA-B*15:01 [4]; [12]): ≥ 20 µM
Kd (HLA-B*15:17; [12]): ≥ 20 µM
Kd (HLA-B*18:01; [12]): ≥ 20 µM
Kd (HLA-B*27:03; [12]): ≥ 20 µM
Kd (HLA-B*39:01; [12]): ≥ 20 µM
Kd (HLA-B*46:01; [12]): ≥ 20 µM
Kd (HLA-B*51:01; [12]): ≥ 20 µM
Kd (HLA-B*57:01; [12]): ≥ 20 µM

SIRSMSRSI
Kd (HLA-A*30:01; [8]): 0.132 µM
Kd (HLA-A*32:01; [8]): 1.36 µM
Kd (HLA-B*08:01; [8]): 0.0772 µM
Kd (HLA-B*15:01 [1]; [8]): 0.362 µM
Kd (HLA-B*15:03; [8]): 10300 nM

SKFVYVSVM
Kd (HLA-B*15:03; [5]): 1.63 nM

SSADLSLEK
Kd (HLA-A*11:01; [13]): 0.0027 µM
Kd (HLA-A*31:01; [13]): ≥ 20 µM

TGHPWITFK
Kd (HLA-A*03:01 [3]; [14]): 0.945 µM
Kd (HLA-A*11:01; [14]): 0.116 µM
Kd (HLA-A*31:01; source organism: Cupriavidus metallidurans CH34): 0.0482 µM

TSCAPMMQK
Kd (HLA-A*02:03; [15]): ≥ 20 µM
Kd (HLA-A*02:11; [15]): ≥ 20 µM
Kd (HLA-A*02:12; [15]): ≥ 20 µM
Kd (HLA-A*02:16; [15]): ≥ 20 µM
Kd (HLA-A*02:19; [15]): ≥ 20 µM
Kd (HLA-A*11:01; [15]): 0.006 µM
Kd (HLA-A*23:01; [15]): ≥ 20 µM
Kd (HLA-A*24:03; [15]): ≥ 20 µM
Kd (HLA-A*68:02; [15]): ≥ 20 µM
Kd (HLA-A*02:01; [15]): ≥ 20 µM
Kd (HLA-A*26:01; [15]): ≥ 20 µM
Kd (HLA-A*69:01; [15]): ≥ 20 µM
Kd (HLA-B*18:01; [15]): ≥ 20 µM
Kd (HLA-B*27:03; [15]): ≥ 20 µM
Kd (HLA-B*39:01; [15]): ≥ 20 µM
Kd (HLA-B*46:01; [15]): ≥ 20 µM
Kd (HLA-B*51:01; [15]): ≥ 20 µM
Kd (HLA-B*57:01; [15]): ≥ 20 µM

VLDCRTAFK
Kd (HLA-A*11:01; source organism: Yellow fever virus 17D): 0.109 µM
Kd (HLA-A*31:01; source organism: Yellow fever virus): 0.772 µM

VSSHKGWAK
Kd (HLA-A*02:03; [16]): ≥ 20 µM
Kd (HLA-A*02:11; [16]): ≥ 20 µM
Kd (HLA-A*02:12; [16]): ≥ 20 µM
Kd (HLA-A*02:16; [16]): ≥ 20 µM
Kd (HLA-A*02:19; [16]): ≥ 20 µM
Kd (HLA-A*03:01 [3]; [16]): ≥ 20 µM
Kd (HLA-A*11:01; [16]): 0.002 µM
Kd (HLA-A*23:01; [16]): ≥ 20 µM
Kd (HLA-A*24:03; [16]): ≥ 20 µM
Kd (HLA-A*68:02; [16]): ≥ 20 µM
Kd (HLA-A*02:01; [16]): ≥ 20 µM
Kd (HLA-A*26:01; [16]): ≥ 20 µM
Kd (HLA-A*69:01; [16]): ≥ 20 µM
Kd (HLA-B*15:17; [16]): ≥ 20 µM
Kd (HLA-B*27:03; [16]): ≥ 20 µM
Kd (HLA-B*39:01; [16]): ≥ 20 µM
Kd (HLA-B*46:01; [16]): ≥ 20 µM
Kd (HLA-B*51:01; [16]): ≥ 20 µM
Kd (HLA-B*57:01; [16]): ≥ 20 µM

WSTSFTNIF
Kd (HLA-B*15:03; [8]): 5.88 nM

— the Immune Epitope Database (IEDB)
